Reference: patent publication EP4289863A9 (Shanghai Huaota Biopharmaceutical Co., Ltd., dated 2024)

Experiments:
Human IL-17A = molecular target: T1, Human IL-17A (human, UniProt Q16552 24-155); assay: cell-based or functional assay
T1 sequence (looked up): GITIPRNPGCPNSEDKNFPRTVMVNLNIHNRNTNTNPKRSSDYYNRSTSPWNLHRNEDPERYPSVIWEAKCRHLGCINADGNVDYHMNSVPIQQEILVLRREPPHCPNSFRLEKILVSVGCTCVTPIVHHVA

human IL-36R [1] = molecular target: T2, human IL-36R (human, UniProt Q9HB29 20-575); assay: flow cytometry on CHO-K1-huIL-36R-5E10/2F10 cells
T2 construct: whole, on cells; also called huIL-36R; IL36R receptors on cell membranes
T2 sequence (looked up): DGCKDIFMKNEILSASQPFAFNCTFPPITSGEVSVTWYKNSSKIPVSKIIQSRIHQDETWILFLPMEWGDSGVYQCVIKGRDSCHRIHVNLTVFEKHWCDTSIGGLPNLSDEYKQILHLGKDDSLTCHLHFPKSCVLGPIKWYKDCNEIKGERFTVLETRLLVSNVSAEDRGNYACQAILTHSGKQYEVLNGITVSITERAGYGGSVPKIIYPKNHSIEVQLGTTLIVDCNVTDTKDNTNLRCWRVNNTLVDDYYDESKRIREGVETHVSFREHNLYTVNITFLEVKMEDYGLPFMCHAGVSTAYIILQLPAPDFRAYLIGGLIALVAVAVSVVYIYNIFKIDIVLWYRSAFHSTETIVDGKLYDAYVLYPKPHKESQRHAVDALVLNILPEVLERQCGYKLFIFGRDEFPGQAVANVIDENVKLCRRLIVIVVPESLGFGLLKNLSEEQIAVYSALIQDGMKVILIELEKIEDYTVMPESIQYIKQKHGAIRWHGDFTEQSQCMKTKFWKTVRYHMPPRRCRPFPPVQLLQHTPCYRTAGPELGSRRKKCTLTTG

[2] = molecular target: T3, IL17A (analyte of Table 17) (Homo sapiens (Human), UniProt Q16552 24-155); assay: SPR Biacore 8K, antibody captured on anti-human chip, antigen as analyte, 1:1 model
T3 sequence: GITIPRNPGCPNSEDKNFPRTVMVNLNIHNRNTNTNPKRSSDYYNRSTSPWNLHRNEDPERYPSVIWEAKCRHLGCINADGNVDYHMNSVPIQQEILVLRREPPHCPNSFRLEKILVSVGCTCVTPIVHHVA

human IL-36R [3] = molecular target: T2, human IL-36R; assay: cell-based or functional assay
human IL-36R [4] = molecular target: T2, human IL-36R; assay: cell-based or functional assay; remark: listed apart in the source
human IL-36R [5] = molecular target: T2, human IL-36R; assay: cell-based or functional assay; remark: listed apart in the source
human IL-36R [6] = molecular target: T2, human IL-36R; assay: cell-based or functional assay; remark: listed apart in the source
[7] = molecular target: T4, His-tagged human IL-1 Rrp2/IL-1R6 protein (human, UniProt Q9HB29 20-335, limits assumed); assay: SPR Biacore 8K, His-tagged antigen captured by anti-His antibody, antibody as analyte, 1:1 model
T4 construct: Bought protein; also called His-tagged human IL-1 Rrp2/IL-IR6 protein; not shown: His tag
T4 sequence (looked up): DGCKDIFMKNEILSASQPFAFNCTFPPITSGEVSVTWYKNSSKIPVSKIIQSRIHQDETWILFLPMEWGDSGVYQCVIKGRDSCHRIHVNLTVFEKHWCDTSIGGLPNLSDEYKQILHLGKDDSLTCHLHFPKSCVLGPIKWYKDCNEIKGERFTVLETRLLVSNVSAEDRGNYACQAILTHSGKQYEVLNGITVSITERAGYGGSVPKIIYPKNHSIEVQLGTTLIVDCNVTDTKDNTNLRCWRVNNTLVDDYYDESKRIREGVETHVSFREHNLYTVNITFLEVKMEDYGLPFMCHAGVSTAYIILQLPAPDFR

human IL-36R [8] = molecular target: T2, human IL-36R; assay: cell-based or functional assay; remark: listed apart in the source

B1: IL17A-IL36R bispecific antibody 700007 (bispecific antibody)
heavy (part 1 of 2): QVQLVQSGSELKKPGASVKVSCKASEYIFTNYGMNWVKQAPGQGFEWMGWIDTNTGEPTYAQGFTGRFVFSLDTSVSTAYLQISSLKAEDTATYYCANYGWGYFDYWGQGTTVTVSS
heavy (part 2 of 2): GGGGSGGGGSGGGGSGGGGSQIVLTQSPGTLSLSPGERATLSCRASSSVSSSYLHWYQQKPGQAPRLWIYSTSSRATGIPDRFSGSGSGTDFTLTISRLEPEDFATYYCQQFQSSPLTFGQGTKLEIKGGGGSGGGGSGGGGSGGGGSQVQLVQSGAEVKKPGASVKVSCKASGYTFTSSWMHWAKQAPGQGLEWIGEIHPNSAKTNYNQKFQGRVTMTRDTSISTAYMELSRLRSDDTAVYYCARVDYGKPWFAYWGQGTLVTVSS
light: DVVMTQTPPSLPVNPGEPASISCRSSQSLVHSNGYTYLHWYLQKPGQSPQLLIYKVSNHLSGVPDRFSGSGSGTDFTLKISWVEAEDVGVYFCSQSTHVPYTFGGGTKLEIKRTVAAPSVFIFPPSDEQLKSGTASVVCLLNNFYPREAKVQWKVDNALQSGNSQESVTEQDSKDSTYSLSSTLTLSKADYEKHKVYACEVTHQGLSSPVTKSFNRGEC
notes: not shown: heavy constant region CH1-CH2-CH3
Human IL-17A
  EC50 of inhibition of IL-6 secretion, HT-1080 cells stimulated with h IL17-A and h TNF-α: 76.6 pM
Human IL-36R [1]
  EC50: 693 pM
[2]
  Kd: 6.13 pM
  koff: 4.33e-05 s⁻¹
  kon: 7.06e+06 M⁻¹ s⁻¹
Human IL-36R [3]
  EC50 of inhibition of IL-6 content, NCI/ADR-RES cells stimulated with IL-36β: 480 pM

B2: IL17A-IL36R bispecific antibody 700009 (bispecific antibody)
heavy (part 1 of 2): QVQLVQSGSELKKPGASVKVSCKASEYIFTNYGMNWVKQAPGQGFEWMGWIDTNTGEPTYAQGFTGRFVFSLDTSVSTAYLQISSLKAEDTATYYCANYGWGYFDYWGQGTTVTVSS
heavy (part 2 of 2): GGGGSGGGGSGGGGSGGGGSQIVLTQSPGTLSLSPGERATLSCRASSSVSSSYLHWYQQKPGQAPRLWIYSTSSRATGIPDRFSGSGSGTDFTLTISRLEPEDFATYYCQQFQSSPLTFGQGTKLEIKGGGGSGGGGSGGGGSGGGGSGGGGSQVQLVQSGAEVKKPGASVKVSCKASGYTFTSSWMHWAKQAPGQGLEWIGEIHPNSAKTNYNQKFQGRVTMTRDTSISTAYMELSRLRSDDTAVYYCARVDYGKPWFAYWGQGTLVTVSS
light: DVVMTQTPPSLPVNPGEPASISCRSSQSLVHSNGYTYLHWYLQKPGQSPQLLIYKVSNHLSGVPDRFSGSGSGTDFTLKISWVEAEDVGVYFCSQSTHVPYTFGGGTKLEIKRTVAAPSVFIFPPSDEQLKSGTASVVCLLNNFYPREAKVQWKVDNALQSGNSQESVTEQDSKDSTYSLSSTLTLSKADYEKHKVYACEVTHQGLSSPVTKSFNRGEC
notes: as for B1
Human IL-17A
  EC50 of inhibition of IL-6 secretion, HT-1080 cells stimulated with h IL17-A and h TNF-α: 100 pM
Human IL-36R [1]
  EC50: 799 pM
[2]
  Kd: 7.96 pM
  koff: 5.71e-05 s⁻¹
  kon: 7.17e+06 M⁻¹ s⁻¹
Human IL-36R [3]
  EC50 of inhibition of IL-6 content, NCI/ADR-RES cells stimulated with IL-36β: 650 pM

B3: anti-IL-36R chimeric antibody 900497 (antibody, V domains shown)
VH: QVQLQQTGSVLVRPGTSVKLSCKASGYTFTSSWMHWAKQRPGQGLEWIGEIHPNSAKTNYNEKFKGKATLTVDTFSSTAYVDLSSLASEDSAVYYCARVDYGKPWFAYWGQGTLVTVSA
VL: QIVLTQSPTIMSASPGERVTMTCSASSSVSSSYLHWYQQKPGSSPKLWIYSTSNLASGVPARFSGSGSGTSYSLTINSMEAEDAATYYCQQFQSSPLTFGAGTKLGLK
notes: Human-mouse chimera: human IgG1 heavy constant region with L234A and L235A (Eu numbering), human kappa light constant region
Human IL-36R [4]
  HuIL-6 detected in HIF under IL-36α stimulation IC50: 0.146 µg/mL
Human IL-36R [5]
  HuIL-6 detected in HIF under IL-36β stimulation IC50: 0.0837 µg/mL
Human IL-36R [6]
  pNFκB detected in HIF under IL-36β stimulation IC50: 0.1 µg/mL
[7]
  Kd: 25.4 pM
  koff: 1.68e-05 s⁻¹
  kon: 660000 M⁻¹ s⁻¹
Human IL-36R [8]
  IC50 of GM-CSF release, NCI/ADR-RES cells stimulated with IL-36α: 0.0328 µg/mL
  IC50 of GM-CSF release, NCI/ADR-RES cells stimulated with IL-36β: 0.0224 µg/mL
  IC50 of GM-CSF release, NCI/ADR-RES cells stimulated with IL-36γ: 0.0288 µg/mL
  IC50 of IL-6 release, NCI/ADR-RES cells stimulated with IL-36α: 0.0332 µg/mL
  IC50 of IL-6 release, NCI/ADR-RES cells stimulated with IL-36β: 0.0204 µg/mL
  IC50 of IL-6 release, NCI/ADR-RES cells stimulated with IL-36γ: 0.0198 µg/mL
  IC50 of IL-8 release, NCI/ADR-RES cells stimulated with IL-36α: 0.0439 µg/mL
  IC50 of IL-8 release, NCI/ADR-RES cells stimulated with IL-36β: 0.0292 µg/mL
  IC50 of IL-8 release, NCI/ADR-RES cells stimulated with IL-36γ: 0.0284 µg/mL
  IC50 of pNF-κB, NCI/ADR-RES cells stimulated with IL-36β: 115 ng/mL
